Data published in the supplement of paper PMC10567573.

B1: ADAMTS4 (parent)
chain: SFRKFRYGYNNVVTIPAGATHILV
B2: PRPH (parent)
chain: RTFGPPPSLSPGAFSYSSSSRFSS

Variants of: B1
Assay: protein stability index of a GFP-peptide fusion (GPS, HEK-293T) (PSI 1-6); higher = more stable
Conditions: c terminus: a fixed tail appended
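Further: lentivirally expressed fusions sorted by FACS into six bins by GFP to DsRed ratio, PSI derived from sequencing read proportions per bin multiplied by bin number.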

Protein stability index, by site and new letter:
A19: V 1.84, W 2.72, Y 3.44
T20: A 2.32, C 2.86, D 1.54, E 2.56, F 3.2, G 1.49, H 1.63, I 2.77, K 2.24, L 2.9, M 2.51, N 1.85, P 3.21, Q 2.19, V 2.55, W 2.38, Y 1.69
H21: A 1.3, C 2.43, D 1.66, E 3.28, F 3.18, G 2.48, I 2.4, K 2.59, M 2.12, N 2.65, P 1.28, Q 2.85, R 2.32, S 2.3, T 3.43, V 2.02, Y 3.3
I22: A 1.74, C 2.42, D 2.24, E 2.53, F 2.58, G 1.93, H 1.8, K 2.37, L 2.51, M 1.9, N 1.83, P 2.59, Q 2.31, R 1.88, S 2.36, T 1.97, V 1.79, W 1.83, Y 1.92
L23: A 2.4, C 2.19, D 1.78, E 1.32, F 2.76, G 2.1, H 2.91, I 3.28, K 2, M 2.43, N 1.75, P 2.29, Q 1.37, R 1.84, S 2.52, T 3.08, V 2, W 2.15, Y 2.41
V24: A 1.52, C 2.39, D 1.93, E 2.34, F 3.25, G 1.81, H 1.73, I 2, K 1.7, L 2.35, M 2.12, N 1.66, P 1.64, Q 1.75, R 1.34, S 1.68, T 1.44, W 1.94, Y 2.57

Variants of: B2
Assay: as above
Conditions: c terminus: a fixed tail appended

Protein stability index: each site, then its substitutions
R1: A 3.18, C 2.59, D 3.29, E 3.09, F 2.52, G 3.25, H 3.24, I 2.41, K 2.74, M 2.29, N 3.7, Q 3.62, S 3.01, T 2.63, V 1.97, W 2.81, Y 2.4
T2: A 2.95, C 2.02, D 3.21, F 2.46, G 2.89, H 3.17, I 2.97, K 2.49, L 2.43, M 2.52, N 2.92, P 3.08, Q 2.92, S 3.73, V 2.23, Y 2.31
F3: A 3.33, C 2.82, D 4.09, E 3.72, G 3.13, I 3.46, K 3.38, L 4.11, M 3.75, N 3.38, R 3.41, S 3.6, T 3.54, V 3.31, W 3.19, Y 3.16
G4: C 2.9, D 3.36, E 3.43, F 3.06, H 3.2, I 2.55, K 2.26, L 2.42, M 3.08, N 3.12, Q 3.26, R 3.1, S 3.21, V 2.37, W 2.22
P5: A 2.76, C 2.64, D 3.35, E 3.23, F 2.61, G 2.84, H 2.81, I 2.5, K 2.99, L 2.07, M 2.6, N 3.55, Q 2.6, R 2.71, S 2.99, T 3.29, V 2.89, W 2.21, Y 2.65
P6: A 2.76, C 2.09, D 2.86, E 2.83, F 2.15, G 3.02, H 2.79, I 2.9, K 3.25, L 2.95, M 2.8, N 3.1, Q 3.03, R 3.02, S 3.37, T 2.71, V 3.05, W 2.01, Y 2.11
P7: A 3.22, C 1.6, D 3.45, E 2.89, F 2.34, G 2.92, H 3.15, I 2.53, K 3.71, L 2.71, M 2.77, N 3.02, Q 3.13, R 2.93, S 3.26, T 3.56, V 2.86, W 2.08, Y 2.12
S8: C 3.04, D 3.04, E 3.49, G 2.68, I 2.78, K 2.58, L 3.14, M 2.93, N 3.5, R 3.83, V 2.59, W 2.75
L9: A 3.52, C 2.71, D 3.61, E 3.44, F 3.39, G 3.64, H 3.54, K 3.8, N 3.42, Q 3.76, R 4.05, S 3.8, T 3.7, V 3.31, W 3.09, Y 2.94
S10: C 3.45, D 2.76, E 3.23, F 2.67, G 3.46, H 3.13, I 3.19, K 3.06, L 3.24, M 3.61, N 3.15, Q 3.34, R 3.15, V 2.78, W 2.9, Y 2.36
P11: A 3.11, C 1.64, D 3.45, E 4, F 2.11, G 2.88, H 2.74, I 2.46, K 2.44, L 2.59, M 2.52, N 3.12, Q 3.38, R 3.63, S 3.04, T 2.94, V 2.69, W 2.23, Y 2.41
G12: C 1.96, D 3.24, E 3.27, F 2.16, I 3.05, K 3.21, L 2.47, M 2.89, N 3.14, R 3.35, S 3.42, T 3.31, V 3.36, W 2.25, Y 2.93
A13: C 2.86, D 3.5, E 3.51, F 2.98, G 3.21, H 3.05, I 3.33, K 3.42, L 3.18, M 3.29, N 3.94, P 3.21, Q 3.62, R 3.01, S 2.73, T 3.45, V 2.94, W 2.79, Y 3.14
F14: A 3.53, C 3.09, E 4.21, G 3.3, H 3.7, I 3.17, K 4.23, L 3.4, M 3.28, N 4.03, Q 4.01, R 4.11, T 4.16, V 3.52, W 3.22, Y 2.87
S15: A 3.27, C 2.33, D 3.49, E 3.22, F 2.43, G 3.64
